Patent US20120165211A1, “Human Antibodies Cross-Reacting With A Bacterial And A Self Antigen From Atherosclerotic Plaques” (priority 2007, published 2012)
Entries after “also recorded” stand apart in the source; their conditions may differ.

Tests used:
[1] = tested on: antigen in the carotid lysate; assay: Western blotting on carotid lysates; type: binding, human; conditions: Fab 10 μg/ml; protein extracts 20 μg/lane
Description: Carotid plaques were macrodissected in 2 mm-thick rings and frozen in isopentane/liquid nitrogen. Every ring was considered as a single specimen. For each patient proteins were extracted from a stenotic and a non-stenotic ring by tissue homogenization in RIPA lysis buffer. The protein content of carotid plaque homogenates was quantified by Bradford assay. Western blot was performed on protein extracts (20 μg/lane) by using 10% Sodium Dodecyl Sulphate-PolyAcrylamide Gel Electrophoresis (SDS-PAGE). SDS-PAGE loading buffer was added to protein lysates before heating at 90° C. for 5 min. Gel was run for about 2 hours at 120V. […] Target (7816-FLAG) and reference proteins (bActin) were detected with specific antibodies (anti-FLAG clone M2 followed by Rabbit-anti Mouse IgG-HRP, and Rabbit-anti Mouse IgG-HRP, respectively—all from Sigma (cod: A9917, St. Louis, Mo.). The membrane was developed by SuperSignal West Pico Chemiluminescent Substrate (Pierce) according to the manufacture instructions. The mean pixel optical density (OD) for each band of the target protein, determined by densitometry, was normalized vs. β-Actin, to evaluate its quantity with respect to carotid plaque total cells. Stenotic and non stenotic rings from stable and unstable (determined by US) carotid plaque specimens were compared.

[2] = tested on: antigen present in Klebsiella pneumoniae; assay: Western blot assay on pathogen lysates; type: binding; conditions: Fab 10 μg/ml; 8 μg total protein lysate per well
Description: (§1) Bacterial cell lysates were carried out inoculating a colony or a scratch in 10 ml of SB and growing bacteria at 37° C. overnight. Cultures of Staphylococcus aureus, Proteus mirabilis, Klebsiella pneumoniae, Enterococcus cloacae, Streptococcus pyogenes, Neisseriae gonhorreae, Listeria monocytogenes were grown. Overnight cultures were harvested by centrifugation (4500 RPM for 10 min.) and then resuspended in 1 ml of RIPA buffer and protease inhibitor PMSF (1 mM final). After three cycles of freeze-and-thawing (37° C. and −80° C.) and one cycle of sonication (90 sec at max power) the lysate was cleared by centrifugation (15000 RPM at 4° C. for 20 min) Moreover one colony of Haemophilus influenzae was seeded on blood agar plates and then grown at 37° C. overnight. Haemophilus inluenzae colonies were collected and resuspended in 500 μl of RIPA/PMSF. All lysates were stored at −20° C. until usage.
(§2) Lysates from Listeria monocitogenes, Streptococcus pyogenes, Staphylococcus aureus, Enterococcus cloacae, Haemophilus influenzae, Proteus mirabilis, Escherichia coli, Klebsiella pneumoniae, were prepared as described in Example II. SDS-PAGE was performed according to standard techniques. Briefly, protein concentration of all lysates was determined by BCA kit (Pierce) according to manufacturer instruction. SDS-PAGE loading buffer was added to protein lysates before heating at 90° C. for 5 min. […]

[3] = tested on: antigen present in Proteus mirabilis; assay: Western blot assay on pathogen lysates; type: binding; conditions: Fab 10 μg/ml; 8 μg total protein lysate per well
Description: as §1, §2

B1: Fab7816: human recombinant Fab from coronary plaque library ID11LIB; heavy chain SEQ ID NO:2, light chain SEQ ID NO:4 (antibody, listed as Homo sapiens, V domains shown)
VH: LESGPGQVKPSQTLSLTCTVSGGSIGSGSYSWNWIRQPAGRGLEWIGRISDSGNTNFNPSLKSRVTMSVDTSKNQFALKLTSVTAADTATYFCARGRGILTGLFDYWGQGSLVSVSSASTKGPSVFPLAPSSKSTSGGTAALGCLVKD
VL: SPDSLAVSPGGRATIKCASSQSVLDNSNHKNSLAWYQQKPGLPPKLLIYWASTRYSGVPDRFSGSGSGTDFTLTINNLQAADVAVYFCQQYYSTPWTFGQGTKVE
binding in Western blot on carotid lysate [1]: binding with an antigen in the carotid lysate
binding in Western blot on Klebsiella pneumoniae lysate [2]: binds specifically; also recorded: recognizes with high specificity and affinity
binding in Western blot on Proteus mirabilis lysate [3]: binds specifically; also recorded: recognizes with high specificity and affinity
